Measured values: PMC10397247

Experiments:
[1] = target: T1, N6-AA; test: two-hybrid library CCmax;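 note: natural log of median RNA to DNA barcode read ratio; higher means stronger binding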
T1 chain: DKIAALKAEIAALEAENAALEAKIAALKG

[2] = target: T2, 4H932-bA; test: two-hybrid library CCNG1;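 note: natural log of median RNA to DNA barcode read ratio; higher means stronger binding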
T2 chain: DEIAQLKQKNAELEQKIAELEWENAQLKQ

[3] = target: T3, 4H949-bA; test: two-hybrid library CCNG1;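 note: natural log of median RNA to DNA barcode read ratio; higher means stronger binding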
T3 chain: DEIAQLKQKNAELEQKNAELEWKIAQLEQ

[4] = target: T4, P1bHq; test: two-hybrid library CCNG1;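 note: natural log of median RNA to DNA barcode read ratio; higher means stronger binding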
T4 chain: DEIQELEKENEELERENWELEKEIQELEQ

[5] = target: T5, P7SHb; test: two-hybrid library CCNG1;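 note: natural log of median RNA to DNA barcode read ratio; higher means stronger binding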
T5 chain: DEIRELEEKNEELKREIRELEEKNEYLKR

[6] = target: T6, P6SHb; test: two-hybrid library CCNG1;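 note: natural log of median RNA to DNA barcode read ratio; higher means stronger binding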
T6 chain: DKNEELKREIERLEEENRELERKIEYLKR

[7] = target: T7, P8SHb; test: two-hybrid library CCNG1
T7 chain: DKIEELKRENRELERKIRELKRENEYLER

[8] = target: T8, P9SHb; test: two-hybrid library CCNG1
T8 chain: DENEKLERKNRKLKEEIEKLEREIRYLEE

[9] = target: T9, P3SHb; test: two-hybrid library CCNG1
T9 chain: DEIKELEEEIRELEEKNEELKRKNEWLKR

[10] = target: T10, P4SHb; test: two-hybrid library CCNG1
T10 chain: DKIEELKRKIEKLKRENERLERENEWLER

[11] = target: T11, P5SHb; test: two-hybrid library CCNG1
T11 chain: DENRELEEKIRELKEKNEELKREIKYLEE

[12] = target: T12, 4H741-bN; test: two-hybrid library CCNG1
T12 chain: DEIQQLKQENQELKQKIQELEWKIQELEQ

[13] = target: T13, 4H40-bN; test: two-hybrid library CCNG1
T13 chain: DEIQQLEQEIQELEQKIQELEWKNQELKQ

[14] = target: T14, 4H492-bN; test: two-hybrid library CCNG1
T14 chain: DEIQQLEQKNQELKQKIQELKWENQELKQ

[15] = target: T15, 4H348-bN; test: two-hybrid library CCNG1
T15 chain: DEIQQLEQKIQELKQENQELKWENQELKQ

[16] = target: T16, 4H477-bN; test: two-hybrid library CCNG1
T16 chain: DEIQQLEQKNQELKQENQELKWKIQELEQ

[17] = target: T17, O13-bS; test: two-hybrid library CCNG1
T17 chain: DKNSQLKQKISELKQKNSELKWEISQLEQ

[18] = target: T18, 4H3277-bN; test: two-hybrid library CCNG1
T18 chain: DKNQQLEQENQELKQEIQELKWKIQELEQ

[19] = target: T19, 4H319-bN; test: two-hybrid library CCNG1
T19 chain: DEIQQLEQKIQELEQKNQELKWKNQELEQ

**Q.** DKIAALKAEIAALEAENAALEAKIAALKG [N6-AA] was tested. Which interaction score [1] did it give?
**A.** The interaction score was 1.66.

**Q.** With DEIAQLKQKNAELEQKIAELEWENAQLKQ [4H932-bA] as the binder, how does the interaction score [2] read?
**A.** The interaction score was 0.694.

**Q.** What about the interaction score [3] of the same binder?
**A.** Its interaction score is -0.925.

**Q.** And the interaction score [4]?
**A.** The interaction score was -0.886.

**Q.** With DEIKELEEEIRELEEKNEELKRKNEWLKR [P3SHb] as the binder, how does the interaction score [5] read?
**A.** The interaction score was 0.504.

**Q.** And the interaction score [6]?
**A.** The interaction score was 0.81.

**Q.** And the interaction score [7]?
**A.** The interaction score was -0.0984.

**Q.** What about the interaction score [8] of the same binder?
**A.** The interaction score was 0.0235.

**Q.** What about the interaction score [9] of the same binder?
**A.** Its interaction score is 0.389.

**Q.** What about the interaction score [10] of the same binder?
**A.** Its interaction score is 1.16.

**Q.** And the interaction score [11]?
**A.** Its interaction score is 0.636.

**Q.** With DEIQQLEQKIQELEQKNQELKWKNQELEQ [4H319-bN] as the binder, how does the interaction score [12] read?
**A.** The interaction score was -0.781.

**Q.** And the interaction score [13]?
**A.** The interaction score was 0.382.

**Q.** And the interaction score [14]?
**A.** The interaction score was -0.916.

**Q.** What about the interaction score [15] of the same binder?
**A.** Its interaction score is -1.38.

**Q.** And the interaction score [16]?
**A.** The interaction score was 0.197.

**Q.** What about the interaction score [17] of the same binder?
**A.** Its interaction score is -2.53.

**Q.** What about the interaction score [18] of the same binder?
**A.** Its interaction score is -0.892.

**Q.** What about the interaction score [19] of the same binder?
**A.** Its interaction score is -0.057.
